# Tests used:
# [1] = test system: MicroNB cells (human neuroblastoma lung micrometastatic variant, MHH-NB11); assay: MTS-based viability assay, MicroNB cells; format: cell-based; conditions: 10 μg human HBB, 72 hr, FIG. 3D
# Excerpt: (§1) The human neuroblastoma lung micrometastatic (MicroNB) and macrometastatic (MacroNB) variants were generated using a mouse model for human neuroblastoma metastasis (Nevo et al., 2008) from the parental cell lines MHH-NB11 (Pietsch et al., 1988) and SH-SY5Y (Biedler et al., 1978) as detailed here (Edry Botzer et al., 2011), and were maintained in culture as previously described (Nevo et al., 2008). The MicroNB and MacroNB variants were previously designated DisNB and MetNB, respectively (Edry Botzer et al., 2011). Authentication of MicroNB and MacroNB cells was performed by short tandem repeat analysis of DNA using the Type-it Microsatellite PCR Kit (Qiagen, Valencia, Calif.), for the genes published by the American Type Culture Collection (ATCC) (Manassas, Va.). The parental cell line MHH-NB11 was kindly provided by Dr. T. Pietsch (Department of Neuropathology, University of Bonn Medical Center, Bonn, Germany).
# (§2) Neuroblastoma cells were seeded (3×10^4 per well) in a 96-well flat-bottomed tissue culture plate. After an incubation of 24 hr, cells were washed and incubated with the relevant factors (detailed in the following sections) diluted in starvation medium (RPMI-1640 containing 5% bovine serum albumin (BSA); Biological Industries, Kibbutz Beit Haemek, Israel; Sigma-Aldrich). Cell viability under normal conditions (starvation medium containing BSA) or after incubation with the relevant factors was monitored after 72 hr using an XTT (XTT cell proliferation kit; Biological Industries) or MTS-based (CellTiter 96® AQueous One Solution Cell Proliferation Assay; Promega) viability assays according to manufacturer instructions. Cells were also counted using the trypan-blue exclusion assay to verify the results obtained by XTT and MTS-based viability assays.
# Circular dichroism analysis of human hemoglobin (HB), hemoglobin subunit alpha (HBA) and subunit beta (HBB) indicated a helical structure for all three proteins (FIG. 3C). […] Neuroblastoma cells were seeded (3×10^4 per well) in a 96 well flat-bottomed tissue culture plate. After 24 hr of incubation cells were washed and incubated with human HBB dissolved in starvation medium (RPMI 5% BSA) to the indicated concentrations. Cell viability under normal conditions (starvation medium) or after incubation with human HBB was monitored after an incubation of 72 hr using an MTS-based viability assay (CellTiter 96® AQueous One Solution Cell Proliferation Assay, Promega) according to the manufacturer instructions. Data are means of three independent experiments±SD. Significance was evaluated using Student's t-test for each variant incubated with human HBB compared to incubation with control media (con).
# [2] = test system: HLMEC (Human lung microvascular endothelial cells); assay: Viability of normal cells, HLMEC; format: cell-based; conditions: normal lung-residing cell line, data not shown
# Excerpt: (§3) The influence of HBB on the viability of the normal lung-residing cell lines HPEC (Human pulmonary endothelial cells) and HLMEC (Human lung microvascular endothelial cells) and on the normal kidney cell line 293T and 293A was examined as well.
# MacroNB cells = assay: Cell cycle analysis by flow cytometry, MacroNB cells; format: cell-based, human; conditions: HBB (1 μg) for 48 hr
# Description: Neuroblastoma cells (5×10^5) were plated and after 24 hr, cells were incubated for 48 hr with HBB diluted in starvation medium (RPMI 5% BSA) to a concentration of 10 μg/ml. Neuroblastoma cells incubated with starvation medium containing BSA alone served as control. Cells were pelleted, washed and resuspended in 0.5 ml PBSX1, containing 0.05 ml propidium iodide (PI) (P-4170, Sigma) (50 μg/ml), and 0.05 ml Triton X-100 (Sigma-Aldrich). Flow cytometry analysis was performed using Becton Dickinson FACSort and CellQuest software (Becton Dickinson, Mountain View, Calif.).
# The cells were also subjected to measurement of cellular DNA content and cell cycle analysis using flow cytometry. Incubation with human HBB elevated the amount of MicroNB and MacroNB cells in the sub GO phase, by 18% and 11%, respectively (data not shown).
# [3] = test system: normal kidney cell line 293A; assay: Viability of normal cells, 293A; format: cell-based; conditions: data not shown
# Excerpt: as §3
# [4] = test system: Cyclin D1 expression in MacroNB cells; assay: Cyclin D1 expression (western blot), MacroNB cells; format: cell-based; conditions: incubated with human HBB, 48 hr; in reference to beta-tubulin; FIG. 4C
# Description: Lysates of neuroblastoma cells and of mouse organs were resolved on SDS-PAGE after the addition of Laemmli sample buffer, and transferred onto nitrocellulose membrane. The total amount of protein in the lanes was assessed by Ponceau staining prior to blocking of the membrane. The membrane was blocked at room temperature with 3% BSA (Sigma-Aldrich) diluted in TBS-Tween (TBST) for 1 hr. For detection of the target proteins, membranes were incubated with relevant primary antibodies (see “Antibodies”), then washed 3 times×5 min with TBSTX1 and incubated with suitable HRP-conjugated secondary antibodies (see “Antibodies”). Membranes were washed again 5 times×3 min with TBSTX1. […]
# Neuroblastoma cells (5×10^6) were plated and after 24 hr cells were incubated for 48 hr with human HBB diluted in starvation medium (RPMI 5% BSA) to a concentration of 10 μg/ml. […] Cyclin D1 expression was calculated in reference to β-tubulin expression in the lane as measured by densitometry using Scion Image software (Scion).
# Whole cell lysates of MicroNB and MacroNB cells incubated with human HBB were subjected to western blot analysis and immunostaining. […] Cyclin D1 expression was calculated in reference to beta-tubulin. […] Significance was evaluated using Student's t-test for each analysis after incubation with HBB compared to incubation with control media.
# [5] = test system: MacroNB cells (human neuroblastoma lung macrometastatic variant); assay: MTS-based viability assay, MacroNB cells; format: cell-based; conditions: 10 μg human HBB, 72 hr, FIG. 3D
# Excerpt: as §1
# as §2, with “After an incubation of 24 hr, cells were washed and incubated with the relevant factors (detailed in the following sections) diluted in starvation medium (RPMI-1640 containing 5% bovine serum albumin (BSA); Biological Industries, Kibbutz Beit Haemek, Israel; Sigma-Aldrich).” left out
# Circular dichroism analysis of human hemoglobin (HB), hemoglobin subunit alpha (HBA) and subunit beta (HBB) indicated a helical structure for all three proteins (FIG. 3C). […] Cell viability under normal conditions (starvation medium) or after incubation with human HBB was monitored after an incubation of 72 hr using an MTS-based viability assay (CellTiter 96® AQueous One Solution Cell Proliferation Assay, Promega) according to the manufacturer instructions. […] Significance was evaluated using Student's t-test for each variant incubated with human HBB compared to incubation with control media (con).
substance,measurement,setting,value
"HBB: beta subunit of human hemoglobin, 147 amino acids, SEQ ID NO:2, HPLC-purified from native human hemoglobin",decrease in viability of MicroNB cells,[1],52%
same,influence on the viability of normal cells,[2],did not influence the viability
same,elevation of the amount of MacroNB cells in G0-G1 phase,MacroNB cells; FIG. 4B,23%
same,elevation of the amount of MacroNB cells in the sub G0 phase,MacroNB cells; data not shown,11%
same,influence on the viability of normal cells,[3],did not influence the viability
same,Cyclin-D1 expression in MacroNB cells,[4],significant decline
same,decrease in viability of MacroNB cells,[5],29%

# — US10561712B2, “Treatment of cancer and inhibition of metastasis using hemoglobin beta subunit” (UNIVERSITY OF MARYLAND, BALTIMORE, priority 2014, dated 2020)
